Source: patent publication US20240218057A1

Legend:
Experiment in all cases: cell-based or functional assay
[1] = target: wildtype SARS-COV-2 spike protein on pseudotyped virus (SARS-CoV-2) (UniProt P0DTC2)
[2] = target: wildtype SARS-CoV-2 spike protein (pseudovirus) (SARS-CoV-2) (UniProt P0DTC2)
[3] = target: SARS-COV-2 spike protein (pSARS-COV-2-SΔ19) on HIV-1 pseudotyped particles (SARS-COV-2) (UniProt P0DTC2)
[4] = target: SARS-CoV-2 spike protein (wild type, pSARS-COV-2-SΔ19) on HIV-1 pseudotyped particles (SARS-CoV-2) (UniProt P0DTC2)

| Substance | neutralization IC50 [1] [µg/mL] | neutralization IC90 [1] [µg/mL] | IC50 neutralization [2] [µg/mL] | IC90 neutralization [2] [µg/mL] | IC50 [3] [µg/mL] | IC90 [3] [µg/mL] | Neutralization activity IC50 [4] [µg/mL] | Neutralization activity IC90 [4] [µg/mL] |
| --- | --- | --- | --- | --- | --- | --- | --- | --- |
| C121 (antibody) | 0.0051 | 0.0198 | – | – | – | – | – | – |
| C135 (antibody) | 0.00859 | 0.0406 | – | – | – | – | – | – |
| C144 (antibody) | 0.00374 | 0.0159 | 0.0037 | 0.0159 | 0.00286 | 0.0405 | 0.00286 | 0.0405 |
